Source: article PMC8978962

Target: CitbHLH2-YFPN (citrus)

CitALMT promoter activity (LUC/REN, dual-luciferase assay in tobacco leaves) with the combination of CitMYB52 and CitbHLH2, against the empty vector SK set as 1: 9.8 fold
Substance: CitMYB52-YFPC (natural protein)
